These results are taken from US20200263147A1.

In experiment [1] the target is UL37N, the N-terminal half (residues 1 to 496) of pseudorabies virus (PRV) UL37 (pseudorabies virus (PRV)). Description: crystal structure, interface analysis calculated without the calcium ions.
For experiment [2] the target is unchanged. Description: crystal structure, interface analysis (PISA), calcium present.

On to “UL37N, the N-terminal half (residues 1 to 496) of pseudorabies virus (PRV) UL37”, for which the buried surface area in experiment [1] is 1500 Å2; in experiment [2] it was 1730 Å2.
